Assay: yeast display, Sf9 membrane polyspecificity reagent, FACS + sequencing; frameworks hold sequencing errors
Procedure, shortened: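 After 36–48 hours of galactose induction, yeast (Saccharomyces cerevisiae BJ5465) displaying a synthetic nanobody library were stained at 4 °C for 1 hour with 10% biotinylated, detergent-solubilized Sf9 membrane reagent. Streptavidin microbeads enriched the stained cells before FACS sorting into low and high (top ~1%) gates on anti-HA and streptavidin fluorescence. Each clone's polyreactivity label reflects its gate of origin.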

Sequence | polyreactivity (PSR sort gate)
QVQLVESGGGLVQAGGSLRLSCAASGRTFPFYAMGWYRPAPGKERELVAAIHSGGITNYADSVKGRFTISRDNAKNTVYLQMNSLKPEDYAVYDCAALTAFYRERGYWGEGTQVTVSS | low polyreactivity
QVQLVESGGGLVQAGGSLRLSCAASGSTFVGNAMGWYRQEPGKERELVATISNSGGRTYYADSVKGRLTISRDNAKYTVYLQMNSLKPEDTAVYYCAADHPDFGPGYSFDYWGQGTQVTVSS | low polyreactivity
QVQLVESGGGLVQAGGSLRLSSAASGRIFYFNARGWYRQAPGKARELVAGISSGGSTDYADSVKGRFTISRDNAKNTVDLQMNSLKPEDTAVYYCATRRSRYSYSGYWGQATQVTVSS | high polyreactivity
QGQLVESGGGLGQAGGSLRLSCGASGRTFDSYAMGWYRPAPGKEREFVAAISYSGTSTYYAVSVTGRFTISRDKAKNTVYLQMNSLIPEDTAVYYCAKEYTFRQWGQGTQVTVSS | low polyreactivity
QVQLVESGGGLVQAGGTLRISCAPSGRIFNTNAMRWYRQAPGKERELVAGITDSGDSTYYADSVKGRFTISRDNAKNTVYLQMISLKPEDTAVYYCATDPASPYIYDYWGQGTQVTVSS | low polyreactivity
QVQLVESGGGLVQAGGSLRLSCAASGSTFPYYTMGWYRQAPGKERELVAAIRYSGSSTYYADSVKGRFTISLDNAKNSVYLQMNSLKPEDTAVYSCAKTLWRRRGDRRYRVIEMDHWGQGTQVTVSS | low polyreactivity
QVQLVESGRGLVQAGGSLRLSCAASGSIFYDNAMGWYRQAPGKDRELVAAISYSGDSTYYADSVKGRFTISHDNAKNTVYLQMNSLKPEDTAVYYCAADYYGIYYSGTSEYWGQGTQVTVSS | low polyreactivity
QVQLVESGGGLVQAGGSLRLSCAASGRTFLSYAMGWYRPAPGKERELVAAIRWRTGSRTYYADSVKGRFTISRDNAKNKVYLQLNSLKPEDTAVYLCANTYWYPYGYWGQGTQVTLSS | low polyreactivity
QVQLVESGGGLVQAGGSLRLSCAAYGRTFSWNAMGWYRQAPGKERELVAGITGRGRSTYYADSVKGRFTISRDNAKNTVYLQMIRLKPEDTAVYYCAARNWQALYYGYGYDYWGHGTQVTVSS | high polyreactivity
QVQLVESGGGLVQAGGSLRLSCAASGIIFCDNAMGWYRHAPGKERELVAAITIGGTSTYYADSVKGRFTISRDNAKNTVYLQMNSLKPEDTAVYYCAKTILYDCDYWGQGTQVTVSS | low polyreactivity
QVQLEESGGGLVQAGGRLRLSCAASGRIYTKYAMGWYRQAPGKERELVAAISGSGGNTYYADSVKGRFTISRDNAKNTVYLQMNSLKPEDTAVYYCNRAKNAYLMDYWGQGTQVTVSS | high polyreactivity
QVQLVESGGGLVQAGGSLRLSCAPSGFTFGIYAMGWYRQAPGKERELLADINVSDGSTYYADSVKRRFTISRDNAKNTVYLQMNSLKPEDTAVYYSAAYVYDTIYTSYREYDYWGQGTQVTVST | low polyreactivity
QVQLVESGGGLVQAGGSLRLSCAASGFTFAVYVMGWSRQAPGKERELVATISFSVGSTYYADSVKRRFTISRDNAKNTVYLQMNSLKPEDTAVYYCNADPPPEYYPDKDNYWGQGTQVTVSS | low polyreactivity
QVQLVESGGGLVQAGGSLRLSCAASGRTFAGYAMGWYRQAPGKERELVAAISGSGGRTYYADSVKGRFTISRDYAKNTVYLQMNSLKPEDTAVYYCAASQRVYIARSDYWGQGSQVTVSS | high polyreactivity
QVQLVESGGGLVQAGGSLRLSCAASGSIFKGNAMGWYRQAPGKERDLVAAISRSGGSTYYADSVKGRFTISRDNAKNTVYLQMNSLKPEDTAVYYCNAVRRNTVRSKGRYDYWGQGTQVTVSS | high polyreactivity
QVQLVESGGGLVQAGGSLRLSCAASGRIFSTNAMGWYRQAPAKERELVAAITRGVSTKYADSVKRRFTISRDNAKNTVYLQMNSLKPEDTAVYYCAASVVWGPESDYWGQGTQVTVSS | low polyreactivity

Sequence | polyreactivity (PSR sort gate)
QVQLVESGGGLVQAGGSLRLSCAASGRTFYIYAMGWYRPAPGKERELVAAITYGGGRTFYADSVKGRFTISRDNAKNTVYLQMNSLKPEDTAVYYCAATVRGKRSTYDYWGQGTQVTVSS | high polyreactivity
QVQLVESGGGLVQAGGSLRLSCAASGIISRSYTMGWYRQAPGKERELVAVISSSGGSTYYADSVKGRFTISRDNAKNTVYLQMNSLKPEDTAVYYCAARPVTRFQGSDYWGQGTQVTVSS | high polyreactivity
QVQIVESGGGLVQAGGSLRLSCAASGSIFGANDMGWYRQAPGKERELVAAISTRGGRTYYADSVKGRFTISRDNEMNTVYLHMNSLKPEDTAVYYCDTSGGRPYKYEYWGQGTQVTVSS | high polyreactivity
QVQLVESGGGLVQAGGSLRLICAASRFTFPGYTLGWYRQEPGKERELVATINRSGSTTYADSVKGRFTISRDNAKNTVYLHMYRLKPQDTADYYCAAVVWGSGNKMDYWGQGTQVTGSS | high polyreactivity
QVQLVESGGGLVQAGGSLRLSCAASGSTFVVNAMGWYRPAQGKERELVAAISRSGTSTYYADSVKGRFTISRDNAKKTVYLQMNSLKPEDSAVYYCNAVGSYYPPDYWGQGTQVTVSS | high polyreactivity
QVQLGESGGGLVQAGGSLRLSCAASGRIFVYNAMGWYRQAPGKERQLVAAIRNDGSTNYADSVKGRFTISRDNAKNTVYFQMNSLKPEDTAVYYCAKSVTGWRGLWYTPRNYYWGQGTQVTVSS | high polyreactivity
QVQLVESGGGLVQAGGSLRLSCAASGRIFWYYGMGWYRQAPGKERELVASIRSGGSTNYADSVKGRFTISRDNAKNSVYLQMNSLKPEDTAVYYCAARPDYRYHYWGQGTQVTVSS | high polyreactivity
QVQLVESGGGLVQAGGSLRLSCAASGSIFKFYAMGWYRQAPGKEREMVAVITYIGGSTYYADSVKGRFTISRDNAKNTVYLQMNSLKPEDTAVYYCNKDGAFHWVGSDPVYLFEYWGQGTQVTVSS | low polyreactivity
QVQLVESGGGLVQAGGSLRLSCAASGRIFGYNVMGWYRQAPGKERELVAAISYSGGSTYYADSVKGRFTISRDNAKNTVYLQMNSLKPEDTAVYYCNAGYRGSSKYNYWGQGTQVTVSS | high polyreactivity
QVQLVESGGGLVQAGGRLRLSCAASGSIFRVYAMGWYRQAPGKERELVARISRGGRTNYADSVKGRFTISRDNAKNTVYLQMNSLKPEDTAVYYCAADVVSLESYSYQSLGYDYWGQGTQVTVSS | high polyreactivity
QVQLVESGGGLVQAGGSLRLSCAASGSIFSENAMGWYRQAPGKERELVADITDGGGSTYYADSVKGRFTISRDNAKNTVYLQMNSLKPEDTAVYYCNAQIFFFAPWYYEYDYWGQGTQVTVSS | low polyreactivity
QVQLVESGGGLVQAGGSLRLICAASGSIFLLYDMGWYRQAPGKERELVAAITWSGGSTYYADSVKGRFTISRDNAKNTVYLQMNSLKPEDTAVYYCAADEPYPTAYEYWGQGTQVTVSS | low polyreactivity
QVQLVESGGGLVQAGGSLRLSCAASRFIFGAYTMGWYRQAPGKERELVAAISWSGDSTYYADSVKGRFTISRDNAKNTVYLQMNSLKPEDTAVYYCAAVWYWSGFDYWGQGTQVTVSS | high polyreactivity
HVQLVESGGGLVQAGGSLRLSCAASGFIFQSYAMGWYRQAPGKERELVASISASGGSTYYADSVKGRFTISRDNAKNTVYLQMNSLKPEDTAVYYCAAGYWSYWSLRMDYWGQGTQVTVSS | high polyreactivity
QVQLVESGGGLVQAGGSLRLSCAASGRISVFYTMGWYRQAPGKERELVAVIRTSGGRTNYADSVKGRFTISRDNAKNTVYLQMNSLKPEDTAVYYCAARVVRYGYKYYYWGQGTQVTVSS | low polyreactivity
QVQLVESGGGIVQAGGSLRLSCAASGFTFYRYAMGWYRQAPGKERELVAAITWSGGSTYYADSVKGRFTISRDNAKNTVYLQMNSLKPEDTAVYYCAADIYDGGFDYWGQGTQVTVSS | low polyreactivity

— the nanobody polyreactivity screen of Harvey et al. (2022)
